# Reference: IntAct's records for PubMed 20371544
# B1: Muscle, skeletal receptor tyrosine-protein kinase (Mus musculus), Q61006 (parent)
# chain: MRELVNIPLLQMLTLVAFSGTEKLPKAPVITTPLETVDALVEEVATFMCAVESYPQPEISWTRNKILIKLFDTRYSIRENGQLLTILSVEDSDDGIYCCIANNGVGGAVESCGALQVKMKPKITRPPINVKIIEGLKAVLPCTTMGNPKPSVSWIKGDNALRENSRIAVLESGSLRIHNVQKEDAGQYRCVAKNSLGTAYSKLVKLEVEVFARILRAPESHNVTFGSFVTLRCTAIGIPVPTISWIENGNAVSSGSIQESVKDRVIDSRLQLFITKPGLYTCIATNKHGEKFSTAKAAATVSIAEWSKSQKDSQGYCAQYRGEVCDAVLAKDALVFFNTSYRDPEDAQELLIHTAWNELKAVSPLCRPAAEALLCNHLFQECSPGVVPTPMPICREYCLAVKELFCAKEWQAMEGKAHRGLYRSGMHLLPVPECSKLPSMHRDPTACTRLPYLDYKKENITTFPSITSSRPSADIPNLPASTSSFAVSPAYSMTVIISIVSSFALFALLTIATLYCCRRRKEWKNKKRESTAVTLTTLPSELLLDRLHPNPMYQRMPLLLNPKLLSLEYPRNNIEYVRDIGEGAFGRVFQARAPGLLPYEPFTMVAVKMLKEEASADMQADFQREAALMAEFDNPNIVKLLGVCAVGKPMCLLFEYMAYGDLNEFLRSMSPHTVCSLSHSDLSTRARVSSPGPPPLSCAEQLCIARQVAAGMAYLSERKFVHRDLATRNCLVGETMVVKIADFGLSRNIYSADYYKADGNDAIPIRWMPPESIFYNRYTTESDVWAYGVVLWEIFSYGLQPYYGMAHEEVIYYVRDGNILACPENCPLELYNLMRLCWSKLPADRPSFCSIHRILQRMCERAEGTVGV
# partner: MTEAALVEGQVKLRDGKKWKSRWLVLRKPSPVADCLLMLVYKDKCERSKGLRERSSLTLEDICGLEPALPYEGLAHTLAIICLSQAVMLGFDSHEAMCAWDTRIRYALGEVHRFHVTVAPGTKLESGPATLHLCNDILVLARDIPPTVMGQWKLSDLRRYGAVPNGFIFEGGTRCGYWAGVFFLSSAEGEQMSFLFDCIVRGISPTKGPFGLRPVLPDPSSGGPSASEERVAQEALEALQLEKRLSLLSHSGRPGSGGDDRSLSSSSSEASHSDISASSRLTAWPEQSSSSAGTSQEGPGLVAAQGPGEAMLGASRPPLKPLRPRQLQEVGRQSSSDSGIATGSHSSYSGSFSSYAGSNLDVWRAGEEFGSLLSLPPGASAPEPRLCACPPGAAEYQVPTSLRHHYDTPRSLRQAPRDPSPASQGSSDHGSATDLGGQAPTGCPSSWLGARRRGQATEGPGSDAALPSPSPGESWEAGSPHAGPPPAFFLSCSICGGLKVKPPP
# Variants of: B1
# Conditions: with dok7_mouse Dok7, Q18PE0
row,effect of a mutation on the interaction,Variant
1,disrupting interaction,A726V
2,decreasing interaction,M604I
